Source: US20250074980A1 (BRIGHAM AND WOMEN S HOSPITAL, published 2025)

Assays:
His-tagged CEACAM1 = molecular target: T1, His-tagged CEACAM1 (human, UniProt P13688 35-428); assay: SPR single-cycle, supernatant IgG captured
T1 construct: 45 kDa SPR analyte; also called CEACAM1-HIS; CEACAM1 analyte
T1 sequence: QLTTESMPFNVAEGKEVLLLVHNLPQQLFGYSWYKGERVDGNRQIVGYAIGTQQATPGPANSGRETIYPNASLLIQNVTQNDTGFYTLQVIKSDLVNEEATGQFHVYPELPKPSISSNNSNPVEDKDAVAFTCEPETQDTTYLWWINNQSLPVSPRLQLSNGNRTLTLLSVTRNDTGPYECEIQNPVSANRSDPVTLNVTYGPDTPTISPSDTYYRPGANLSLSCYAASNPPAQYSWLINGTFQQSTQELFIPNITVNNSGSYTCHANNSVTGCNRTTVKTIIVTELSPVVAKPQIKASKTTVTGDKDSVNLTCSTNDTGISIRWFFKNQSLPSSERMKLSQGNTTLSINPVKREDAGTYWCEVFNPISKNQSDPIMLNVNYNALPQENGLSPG
Procedure, shortened: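 Humanized, affinity-matured IgGs from crude supernatant (0.5 μg/ml in HBS-P+) captured on Protein A to ~100 RU. Single-cycle kinetics: CEACAM1 at three concentrations, 70–280 nM two-fold, 80 μl/min, 80 s association each, 150 s dissociation. Reference-channel and blank-run subtraction applied.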

[1] = molecular target: T2, CEACAM5 (recombinant protein) (human, UniProt P06731 35-685); assay: SPR single-cycle kinetics, antibody captured on Protein A, CEACAM-5 injected at three rising concentrations [Cont.]
T2 construct: construct not described
T2 sequence (looked up): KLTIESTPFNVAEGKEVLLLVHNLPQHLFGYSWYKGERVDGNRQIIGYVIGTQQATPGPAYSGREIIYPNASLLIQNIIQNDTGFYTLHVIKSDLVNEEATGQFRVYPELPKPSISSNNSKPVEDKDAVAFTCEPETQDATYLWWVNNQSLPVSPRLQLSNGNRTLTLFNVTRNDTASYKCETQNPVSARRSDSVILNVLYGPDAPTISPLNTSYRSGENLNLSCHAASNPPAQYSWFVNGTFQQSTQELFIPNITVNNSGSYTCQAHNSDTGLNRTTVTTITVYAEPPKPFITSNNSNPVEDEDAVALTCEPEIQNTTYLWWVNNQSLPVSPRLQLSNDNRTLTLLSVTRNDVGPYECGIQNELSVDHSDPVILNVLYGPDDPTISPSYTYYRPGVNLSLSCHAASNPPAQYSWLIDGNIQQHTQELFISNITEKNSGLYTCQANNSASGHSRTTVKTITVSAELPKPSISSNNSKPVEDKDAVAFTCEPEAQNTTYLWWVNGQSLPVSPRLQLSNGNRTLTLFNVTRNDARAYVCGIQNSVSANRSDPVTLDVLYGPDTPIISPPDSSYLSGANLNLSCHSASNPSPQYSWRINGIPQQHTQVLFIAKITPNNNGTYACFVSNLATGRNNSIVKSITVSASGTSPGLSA
Protocol: In order to assess the binding of the humanized, affinity matured reformatted lead IgGs, single-cycle kinetics analysis was performed on crude supernatants using a Biacore T200 running Biacore T200 Control Software V2.0.1 and Biacore T200 Evaluation Software V3.0. Antibodies were diluted in HBS-P+ to a final concentration of 0.5 μg/ml. At the start of each cycle, antibodies were loaded onto Fc2, Fc3 and Fc4 of the Protein A chip. IgGs were captured at a flow rate of 10 μl/min to give an immobilisation level (RL) of ˜100 RU (a level calculated to obtain a Rₘₐₓ of ˜50-150 RU once the analyte is bound). The surface was then allowed to stabilize. Single-cycle kinetics data was obtained with CEACAM1 as the analyte at a flow rate of 80 μl/min to minimize any potential mass transfer effects. Multiple repeats with the parent (VH1/Vκ8 S29A) antibody were performed to check the stability of the surface and analyte over the kinetic cycles. The signal from the reference channel Fc1 (no antibody) was subtracted from that of Fc2, Fc3 and Fc4 to correct for differences in non-specific binding to the reference surface. […] The association phase for the three injections of increasing concentrations of CEACAM1 was monitored for 80 seconds each time and a single dissociation phase was measured for 150 seconds following the last injection of CEACAM1. […]

B1: VH1/Vκ8 S29A (antibody, IgG4, V domains shown)
VH: EVQLLESGGGLVQPGGSLRLSCAASGFIFSSHGMSWVRQAPGKGLEWVATISSGGTYTYYPDSVKGRFTISRDNSKNTLYLQMNSLKAEDTAMYYCARHDFDYDAAWFAYWGQGTLVTVSS
VL: EIVLTQSPATLSLSPGERATLSCRANSAVSYMYWYQQKPGQAPRPWIYLTSNRATGVPARFSGSGSGTDYTLTISSLEPEDFAVYYCQQWSSNPPTFGQGTKLEIK
notes: IgG4 (S241P), kappa; also called Parent; Parent (VH1/Vκ8 S29A)
B1 was tested, and the Kd (His-tagged CEACAM1) was 590 nM, the koff (His-tagged CEACAM1) was 0.057 s⁻¹ and the kon (His-tagged CEACAM1) was 95000 M⁻¹ s⁻¹. The “relative KD to parent” value (His-tagged CEACAM1) was 1.

B2: CP08H03/CP08F05 (antibody, V domains shown)
VH: EVQLLESGGGLVQPGGSLRLSCAASGFIFSSHGMSWVRQAPGKGLEWVATISSGGTYTYYPDSVKGRFTISRDNSKNTLYLQMNSLKAEDTAMYYCARHDFDYFPYWFAHWGQGTLVTVSS
VL: EIVLTQSPATLSLSPGERATLSCRANSAVSYMYWYQQKPGQAPRPWIYLTSNRATGVPARFSGSGSGTDYTLTISSLEPEDFAVYYCQQWTSNPPTFGQGTKLEIK
notes: IgG4 (S241P), kappa
B2: no binding [1].

B3: CP08H03/Vκ8 S29A (antibody, IgG4, V domains shown)
VH: EVQLLESGGGLVQPGGSLRLSCAASGFIFSSHGMSWVRQAPGKGLEWVATISSGGTYTYYPDSVKGRFTISRDNSKNTLYLQMNSLKAEDTAMYYCARHDFDYFPYWFAHWGQGTLVTVSS
VL: EIVLTQSPATLSLSPGERATLSCRANSAVSYMYWYQQKPGQAPRPWIYLTSNRATGVPARFSGSGSGTDYTLTISSLEPEDFAVYYCQQWSSNPPTFGQGTKLEIK
notes: IgG4 (S241P), kappa; also called CP08_H03/Parent VL; CP08_H03/Parental
With B3 the Kd (His-tagged CEACAM1) was 45 nM, the koff (His-tagged CEACAM1) was 0.0076 s⁻¹ and the kon (His-tagged CEACAM1) was 180000 M⁻¹ s⁻¹. The “relative KD to parent” value (His-tagged CEACAM1) was 13.7 and the binding result [1] was “no binding”.
